From the DeepSol protein solubility set

Test: soluble on expression in E. coli; label from the status in PepcDB or PDB records

Sequence | soluble on expression in E. coli
MRKTKIVCTIGPASESIEKLEQLIEAGMNVARLNFSHGSHEEHGARIKNIREASKKTGKTVGILLDTKGPEIRTHDFVDGQAELVTGAEVVLSTEQVLGTAEKFSVSYAGLYDDVDPGSRILIDDGLIELEVIEKADGNIRTKVLNSGTVKNKKGVNVPNVSIKLPGITEKDVKDIIFGIEQKVDFIAASFVRKAADVLEIRELLEEHNAQYIQIVPKIENQEGIDNIDSILEVSDGLMVARGDMGVEIPPEEVPLVQKRLIKKCNVLGKPVITATQMLDSMQRNPRPTRAEASDVANAIFDGTDAIMLSGETAAGQYPVEAVTMMANIAVRVEKSLQYEDMFKKRIKEFTPTITDAISQSVAHTALALDVAAIVAPTESGYTAKMISKYRPKSPIVAVTSDEQVGRRLALVWGVQAFMAEKRAASTDEMLDTAIQTGMDAGLIGLGDTVVITAGVPVAETGTTNLMKIHVVGEEVAKGQGIGRKAAKGKVVVAKTAAEAVANVNEGDILVTTSTDKDMIPAIEKAAALVVEEGGLTSHAAVVGVSIGIPVIVGVNGVTATLKNGQEVTVDAARGIVYNGHAEVL | soluble
MRKVRVGIWGFGAMGIGMANMILKKEGIEIVSVCSRSTSGKSMYDVLGIERGERPEVIINKNYEEVFREKSVDVVLLATDSFTKKAFDKIIFLLNRKINVISTAEQMAYPQADDADLAKKMDEVAKENGVSILGTGINPGFVLDLLVLALSGTCEEVTSIKAKRVNDLSPFGKSVMVEQGVGVTREEFIKGVEDKTIAGHVGFVESINMIADGLGWKLDKIEQTKEPIMTTVDRKSKYGEALAGNVAGCRQCGYGYVNGEVLIEMEHPQQIIPEAEGIKTGDYVSIKGIPNIDLQINPEIPGGVGTYAMIVNSIPLIINARPGLKTMLDIPVPRAIMGDIRNQIEVELEEESKAN | not soluble
MRKYKLGIYEKALPKNISWQDRLSIAKSCGFDFVEMSIDETDERLARLEWSKEQRLALVNSIVTTGITIPSMCLSGHRRFPFGTRDQATREKAYEIMEKAIQFAVDTGIRTIQLAGYDVYYEEQDQGTIERFQQGLAWAVELAASNQVTLAVEIMDTPFMSSISRWKKWDEMINSPWFTVYPDIGNLSAWNDNIEQELALGINKISAIHLKDTYKITKDCAGQFRDVPFGDGCVDFKGFFEILAKLNYRGAFLIEMWTEKAEEPIAEIINARRWIEQKMKEGGFEC | not soluble
MRLAFFGDVHGNFEALKAVLEDMENKGVDEVFCLGDLVGYGPDPEAVVQTIMEKNIKTIMGNYDDAVGYSKESCGCSYAPGRETEVGDISLKWSIENTSEKTREFLRNLPKKLSFEVEGVRFLLVHGSPLNELLEYVKPNTPPDRLKKIVESVEENVVVNGHTHLPMVKWVMGKLVLNPGSAGRPKDGDPRASYMIVDVENGTVSFEIVRVRYDVKTTVEKIARNGLPVELATVLALGQTFDMGPGKVTFTLGR | soluble
MRLALAVLILLLSIAPAMALCSYEVVEERYADPFTVDISSMPSLKDLPVDDPSDGIDWVKVPLPKPCVNGMGKDTFIMVRKGSSNNLLIFFEGGGACADYETCKPMLCTDLKSCKPLLGIGSVVALESNFCFLKLYYRGGIFDVKKAENPFRDWTIVFVPYNTGDLHMGNRVVRYFDDGKEKTIYHVGYVNAIVAMRWIKENGNFDRIVVAGSSAGGYATLLHGYTAWSIFGKPVTVINDAGPGINPDSDSKFQVNEIMERWGSKQNFPPEALQYFEGKDPAYAIEYFLDKCSDCVYGFFEDQKDLVIGSVFSAYWPWQFKTRLLKVTDELRDYSDRYCRFLPYDYQHTVLTGGLLYPLQKDRFYCEKVGGYRVYEWVKELLRGNCVDLVELEHHHHHH | not soluble
MRLEGLTIGVGFTGSFCTYDKIFIELENLVKEGANVHTIFSDVSQNIDCRFGNSEEFMKKAYELTGNKPIVTIEEAEPFGPKGIADIIIIAPCTGNTAAKLANGITDSPVLMAAKGHLRNDKPLVISISTNDALSFNFKNIGILLNSKNIYFVPFGQDNCKAKPNSMIAHTELIIPTIELALENKQLQPVIKSPHQLEHHHHHH | soluble
MRLKDLGERALLARLAPLGYPPEAPLPPGDDAGGVWAEGRAWLLKTDGFLYREVALKGMGPFEVGFRGVAATASDLLAKMGRPLGFTLGLFLPEDLEEGFVLELVRGAAEAAKRLGAFLLGGDTNRGVEVALTVSGYALAEAPLPRKALPGDLLYLAGDRWGRTGAAIRAHYEGRSLEGFPKIREAAFYPLPRLELLALSGLLRGSLDSSDGLAETLWQLADLGVGVEVEALPLYPDVLAFAGSEEAALELVLYGGEEFEAVLVVPQEGAAAVEARAKAKGLPLFRAGRVVAGEGVYLRGAPLPRKGYAHF | soluble
MRLLDIWMRSAAALMLLSGAAFADVTVSQSNDPSVSLGGQLSALLGAERSALGTLPAQRLEQVAAAVARPEAKPEAPVKAVATKGNRGAKAADDAPAPRYDEAWLASQPATAKDSDEWKCLATALYFEARGESIQGQFAVAEVIMNRVDRPGYPGSICGVVRQGGQFSFMFDGKPETIREKAAFQRAGKIAALMLAGAPRQLTQGATHFHTRAVRPGWAHRFPRTAAIGAHLFYRQPGGS | not soluble
MRLLTWDVKDTLLRLRHPLGEAYATKARAHGLEVEPSALEQGFRQAYRAQSHSFPNYGLSHGLTSRQWWLDVVLQTFHLAGVQDAQAVAPIAEQLYKDFSHPCTWQVLDGAEDTLRECRTRGLRLAVISNFDRRLEGILGGLGLREHFDFVLTSEAAGWPKPDPRIFQEALRLAHMEPVVAAHVGDNYLCDYQGPRAVGMHSFLVVGPQALDPVVRDSVPKEHILPSLAHLLPALDCLEGSAENLYFQSHHHHHHDYKDDDDK | soluble
MRLLVSCVDSGSIKEVLCNIGTDTSVQSALQPFHVAPHLAEGLKAYVDRMWVISEDEAILARNSGVVELVKISKHLKENEALQVDPKGESKNEKSLSDDLPKFDISEFEITSSVSDLFDDAKLESLSSKSVKRTKLVDGFVTLCPIKKDSSNNTFVAATKSGLLHIIKKGEDKKLIKLASLGLKAPVEFLQLYDLEDTDTDKYIFAYGGEENLIKLVEIDSSFQSLKQIWEAKNVKNDRLDMRVPVWPMALRFLEPSPGKTEKGKLNYQFAAITRWSHLTKYSTQHGRKPFAQIDLLPNREPLSQMEVFDAKGENVVSSLGNFQSETFNELNVITTDYKKNVFKFDGNGRMLGKVGRDDITGSSTYIHVHDGKYLLQGGLDRYVRIFDIKTNKMLVKVYVGSRINFIVMLDDVEIEMPLSPSAKAAKGKQKRKVTELEEDADELWNKLEGKVAASKASKKSKI | soluble
MRLPPMLDNLTRMARMNDNQHRFALSDLYRFVNGPWLDSHVIPEDRGVDGIFHGLRDRAEEDVHTIVMDSADSLAGKLYASFMDTEGIESAGVAALDKDLTLIDVATVPEFVQALGALDRVGVGGPVGFWVAKDSAGDKSVAYIMQSGITLPDEAYYREESHAQTREAYQKHVEKMLGFLAPEQLGTTPIDAATRILALETDIAAAHWDVVQRRDAVKTFNPTEMAELPPQVAALLRAAGLPEHRVISMMPSYFEALESLLTPQRLDDWKLLTTWRILHSRAGVLTPEISRADFEFFGTTLSGATQQRDRWKRALGLAESFVGEEIGALYVERHFPESSKKDMLSLVSYLIEAYRERISGLSWMTPETRERALDKLDKFNAKIGYPDSWRSYAGLEFSAKGTDLL | not soluble
MRLSFLTLQRRHALRDALRHKPAPRCRTQERTQSVQNGMPTRSVARLEHHHHHH | not soluble
MRMNIRVALPQAQVHWCRGWLQAAHADALMQALLDQVQWEVHRIRMFGRVVDSPRLSSWIGDADASYRYSGTQFAPQPWLEALQPVRTRLQDETGSPFNSVLVNRYRSGADAMGWHSDDEPELGAQPVIASLSLGAARRFAFKHRHDAALKQTLELGHGDLLLMGGDTQRHYKHALPRTVKPVGERINLTFRQIAVRVSQRLEHHHHHH | not soluble
MRMSSNFRNPCMIRSDVPLSNDQIAHYVPSIFAEEAHDSRSARYLYIPTVQVLDALRAEGFEPFMACQTRVRDQGKREHTKHMLRLRHASQILDQEANEVILLNSHDGSSSYQMIGGKFRFVCANGLVLGDVAADQKVRHSGRGDVVHDVIEGAFEVLKHFEQIDHITADMKHQQLDQDEQEAFALAALAYRYDPAEGPAPVTPSQLLMPRRREDRSSDLWTTFNRVQENTIKGGLTGRNKQGRRTTTRAVNGIDQDVKLNRALWVLAQAMGEHRKAA | not soluble
MRNFKKPDVLVSKCLEHGRCRYDGQMISSDFVKSTKKYFNYVPVCPEVEIGLSIPRNSLKIVFENEKFEFVQNITNNNYTSKITQFSSDFLDSIENIDGAVLKHKSPSCGIKNVKVYTAKGNPTNQKTEGFFAKEVLYRYSNIAIEEESRLRNKRIKDHFLTKLYTIKDFKEVKESESIKNLIEFHTNNKFLFMAYNQKQKDILGNIVGNHNKNFDKIIKLYEKHLQLLLKRPSAIGSNINVLMHIFGYMSNKISKDEKLLFIDSLQRYHDELDCLCVPIILLKSWVIRFNVDYLKKQTYFEPFPQELADNSEMFKRDYWND | not soluble
MRNHYMSMYDMRQFFKTYFSSASEKSILVKLLDKRFHPPSHTANILDLGCHDGALMKNIVNAYAKRLPEKLVITGVDPSLQAIKEYAKADFPIPVQTNTFAGTAEDYFDVCTDHFDWIFASQCLYWSPDLPKIIKQIHETGDSALIVIRGCHGIYEIQSQFRHYIGNHLEKFYTDKEVEMALRTQKILFQKESLSTSIRLPDKDSIELKWLILFFLQMEEESLGDKIFCEVRDWITSRTSGSIHHEVHFFWLGNAILQGITI | not soluble
MRNLIISAALVAASLFGMSAQAAEPIESGKQYVELTSAVPVAVPGKIEVIELFWYGCPHCYAFEPTINPWVEKLPSDVNFVRIPAMFGGPWDAHGQLFITLDTMGVEHKVHAAVFEAIQKGGKRLTDKNDMADFVATQGVNKDDFLKTFDSFAVKGKIAQYKELAKKYEVTGVPTMIVNGKYRFDLGSAGGPEKTLQVADQLIDKERAAAKAAK | not soluble
MRNVLKAETLERKFPLLSVENGCIVSKDADLTVAFEVELPELYTVTAEEYEAMHSTWIKAARVLPEHSIVCKQDWFTKESYRPQNGGEEQSFLSRSYERHFNERPYLNHRCFLYLTKTTRERNRRQSDFSTLCRGFLLPREITDKDMAARFLEAVEQFEHIVNDSGHIRLRRLETEEITGTRERPGLVEKYLSLSMEDETAVLQDICLKPGRMRIGDKRLCLHTLSDTEDLPGKLSTDMRYERMSTDRSDCRLSFAAPVGLLLSCNHIYSQYVFIDNAQKILQMMEKNSRNMLSLSQYSRSNAVNQEWTEMYLDEAHTKGVLPVRCHCNVIAWAEDAEEFRRIRNDTGSQLAMMECTPRYNTVDTPVLYWAGIPGNAGDFPAEESFYTFLEQAVCLFAGETNYRSSPSPFGIRMADRQNGIPVHVDISDLPMKRGIITNRNKFILGPSGSGKSFFTNHLVRNYYEQGAHILLVDTGNSYQGLCRMIHERTRGGDGIYITYEEDNPISFNPFYTDSGQFDVEKRESIKTLILTLWKREDEAPKRSEEVALSGAVNAYIRKITENREARPDFNGFYEFVDGDYRRMIAEKKVREKDFDIDGFLNVLEPFYKGGDYDFLLNSDRELDLTNRRFIVFELDNISGNKVLLPVVTLIIMETFIAKMRRLKGIRKVILIEECWKALMSANMSGYIQYLFKTVRKYFGEAVVVTQEVDDIISSPIVKEAIINNSDCKILLDQRKYMNKFEHIQRLLGLTEKEKSQILSINQANHPGRFYREVWIGLGGTRSAVYATEVSAEEYFTFTTEESEKLEVQRLAEELDGNLELAIRRMAERKREEQRQVSIPKREQ | not soluble
MRPDDAIELFNSCRGHCIERQNYIENLQKRHVRKNRNVSAPRTDGLEDSADPTEQVYTNNKPVKKKPRKNRRGGHLAPSQHFQHQTQSSPYSLRKWSQNQSVYQRGLVPPPGPAGEDYSQRRFFWSARPNKWTAESYQRPFYPYYWEWNL | not soluble
